Earlier results in paper PMC12152952.

Target: EphA2 (ephrin type-A receptor 2) (UniProt P29317)
Details: 2'-fluoro on lowercase residues (all C and U; 2'-F pyrimidines), A and G are ribo

Sequence of EphA2 (ephrin type-A receptor 2) (P29317 24-537): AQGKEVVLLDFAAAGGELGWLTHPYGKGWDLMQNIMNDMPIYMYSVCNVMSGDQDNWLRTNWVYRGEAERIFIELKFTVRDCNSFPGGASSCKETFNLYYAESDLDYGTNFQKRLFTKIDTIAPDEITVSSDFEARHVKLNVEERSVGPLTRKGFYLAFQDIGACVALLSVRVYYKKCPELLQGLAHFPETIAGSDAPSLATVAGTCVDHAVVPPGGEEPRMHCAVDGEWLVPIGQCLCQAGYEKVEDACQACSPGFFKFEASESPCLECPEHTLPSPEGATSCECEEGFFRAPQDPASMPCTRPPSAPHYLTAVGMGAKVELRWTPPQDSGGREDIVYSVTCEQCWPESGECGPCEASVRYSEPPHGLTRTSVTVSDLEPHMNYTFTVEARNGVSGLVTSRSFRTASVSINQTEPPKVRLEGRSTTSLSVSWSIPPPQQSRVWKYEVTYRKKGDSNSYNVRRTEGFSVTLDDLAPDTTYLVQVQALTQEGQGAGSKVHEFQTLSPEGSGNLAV

## CCUGUUGUUCGACAGGAGGCUCACAACAGG [A40s]
  Kd: 760 pM
